# Data from PMC8501957.
# pKd: −log10 of the molar value.
# Biological target: MvaT F36D/M44D (P. aeruginosa) (UniProt Q9HW86)
# Test: ITC; gp4 injected into MvaT F36D/M44D in the cell; 20 C; 20 mM Bis-Tris pH 6, 50 mM KCl, 16 mM MgCl2; one set of sites model
Substance,pKd,stoichiometry N
gp4 of Pseudomonas phage LUZ24 (natural protein),6.77,0.56
gp4 K42E/K45E (natural protein),5.87,0.52
